Data as given in patent US20260125451A1 (JIANGSU HENGRUI PHARMACEUTICALS, published 2026).

Assays:
[1] = molecular target: recombinant human BAFF (R&D cat: 7537-BF-025/CF) (human, UniProt Q9Y275 134-285, limits assumed); assay: cell-based or functional assay
[2] = molecular target: T1, APRIL (Acro Biosystems, Cat: APL-H52D1) (UniProt O75888 115-250, limits assumed); assay: ELISA, APRIL coated, anti-human Fc-HRP, OD450
T1 construct: also called ARPIL; A proliferation-inducing ligand
T1 sequence (looked up): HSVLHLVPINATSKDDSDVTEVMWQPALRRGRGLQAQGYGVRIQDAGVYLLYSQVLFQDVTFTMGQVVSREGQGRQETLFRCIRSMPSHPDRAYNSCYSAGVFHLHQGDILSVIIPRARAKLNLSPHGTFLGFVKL
Method: The capabilities of fusion proteins B606401, B637302, B746201, and B805201 to bind to BAFF and APRIL were assessed by ELISA as follows:
BAFF (PeproTech, Cat: 310-13) or ARPIL (Acro Biosystems, Cat: APL-H52D1) was diluted to 1 μg/mL with PBS, and a 96-well plate was coated with the dilution overnight at 4° C. The plate was washed with PBST and blocked with Blocking Buffer (PBST containing 1% BSA) at 37° C. for 1 h. The plate was tapped. The test antibodies were diluted with Blocking Buffer. Incubation was performed at 37° C. for 1.5 h. The plate was washed with PBST. An HRP-mouse anti-human Fc antibody (GenScript, Cat: A01854-200) was diluted with Blocking Buffer. Incubation was performed at 37° C. for 40 min. The plate was washed with PBST. 100 μL of TMB substrate solution (Biopanda, Cat: TMB-S-003) was added, and color development was performed at 37° C. for 3 min. 100 μL of ELISA stop solution (Solarbio, Cat: C1058) was added. OD450 was measured.
The EC₅₀ value for the capability of B637302 to bind to APRIL decreased to 1/7 to ⅙ of that of telitacicept.

[3] = molecular target: T1, APRIL (Acro Biosystems, Cat: APL-H52D1); assay: ELISA, APRIL coated, anti-human Fc-HRP
[4] = molecular target: T2, type I interferon (IFN) receptor subunit 1 (IFNAR1) (human, UniProt P17181 28-557); assay: cell-based or functional assay
T2 sequence (looked up): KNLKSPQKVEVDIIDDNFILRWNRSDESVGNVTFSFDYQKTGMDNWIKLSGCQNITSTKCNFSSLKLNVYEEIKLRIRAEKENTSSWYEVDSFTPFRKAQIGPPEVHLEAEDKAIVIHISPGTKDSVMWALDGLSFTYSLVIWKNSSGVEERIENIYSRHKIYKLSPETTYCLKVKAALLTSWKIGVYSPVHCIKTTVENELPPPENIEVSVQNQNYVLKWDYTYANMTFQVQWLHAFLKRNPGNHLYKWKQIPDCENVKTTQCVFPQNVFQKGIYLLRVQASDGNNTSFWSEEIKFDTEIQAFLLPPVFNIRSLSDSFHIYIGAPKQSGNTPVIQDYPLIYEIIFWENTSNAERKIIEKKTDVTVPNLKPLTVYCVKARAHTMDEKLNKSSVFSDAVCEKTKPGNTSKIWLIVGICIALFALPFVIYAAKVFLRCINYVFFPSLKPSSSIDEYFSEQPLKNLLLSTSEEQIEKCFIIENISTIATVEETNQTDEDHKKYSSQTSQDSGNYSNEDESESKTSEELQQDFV

[5] = molecular target: T2, type I interferon (IFN) receptor …; assay: cell-based or functional assay; remark: listed apart in the source

- Flow cytometry proliferating B cell proportion (%), mean, BAFF-induced, drug at 10 nM [1]: 20.4%
- Flow cytometry proliferating B cell proportion (%), mean, BAFF-induced, drug at 100 nM [1]: 24.3%
- Flow cytometry proliferating B cell proportion (%), mean, BAFF-induced, drug at 1000 nM [1]: 15%
- Emax [2]: 2.85 nM
- EC50 relative to that of telitacicept [3]: 0.333 ratio
- IC50, inhibition of IFN-α-induced in vitro differentiation of B cells into plasma cells [4]: 6.21 nM
- IC50 (nM), inhibition of the activity of type I interferons (IFN-β, HEK-Blue IFN-α/β cells) [5]: 1.63 nM
B1: B805201 (other)
heavy: EVQLVQSGAEVKKPGESLKISCKGSGYIFTNYWIAWVRQMPGKGLESMGIIYPGDSDIRYSPSFQGQVTISADKSITTAYLQWSSLKASDTAMYYCARHDIEGFDYWGRGTLVTVSSASTKGPSVFPLAPSSKSTSGGTAALGCLVKDYFPEPVTVSWNSGALTSGVHTFPAVLQSSGLYSLSSVVTVPSSSLGTQTYICNVNHKPSNTKVDKRVEPKSCDKTHTCPPCPAPEFEGGPSVFLFPPKPKDTLMISRTPEVTCVVVDVSHEDPEVKFNWYVDGVEVHNAKTKPREEQYNSTYRVVSVLTVLHQDWLNGKEYKCKVSNKALPASIEKTISKAKGQPREPQVYTLPPSRDELTKNQVSLTCLVKGFYPSDIAVEWESNGQPENNYKTTPPVLDSDGSFFLYSKLTVDKSRWQQGNVFSCSVMHEALHNHYTQKSLSLSPGKGGGGSGGGGSGGGGSSTSCREEQGEFYDHLLRDCISCASICGQHPKQCAAFCE
light: EIVLTQSPGTLSLSPGERATLSCRASQSVSSSFFAWYQQKPGQAPRLLIYGASSRATGIPDRLSGSGSGTDFTLTITRLEPEDFAVYYCQQYDSSAITFGQGTRLEIKRTVAAPSVFIFPPSDEQLKSGTASVVCLLNNFYPREAKVQWKVDNALQSGNSQESVTEQDSKDSTYSLSSTLTLSKADYEKHKVYACEVTHQGLSSPVTKSFNRGEC
notes: Anifrolumab with TACI-19-16 at the C-terminus of the heavy chain; also called B80521
